Test results: publication PMC8876890, “Engineering Chimeras by Fusing Plant Receptor-like Kinase EMS1 and BRI1 Reveals the Two Receptors’ Structural Specificity and Molecular Mechanisms” (International Journal of Molecular Sciences, 2022)

Experiments:
BSK1-His = biological target: T1, BSK1-His (UniProt Q944A7 1-512); experiment: pull-down; GST fusion proteins on Glutathione Sepharose 4B beads, incubated with BSK1-His or BSK3-His 4-6 h at 4 °C, washed 6-8 times with His lysis buffer; blot with His and GST antibodies; conditions: both partners purified
T1 construct: BSK1, receptor-like cytoplasmic kinase of subfamily RLCK-XII, full-length cDNA in pET-28a; The species is most likely Arabidopsis thaliana, the plant of the whole study; source: E. coli BL21 (DE3), purified (Ni-NTA Agarose)
T1 sequence (Q944A7 whole entry, the tested form may be a part): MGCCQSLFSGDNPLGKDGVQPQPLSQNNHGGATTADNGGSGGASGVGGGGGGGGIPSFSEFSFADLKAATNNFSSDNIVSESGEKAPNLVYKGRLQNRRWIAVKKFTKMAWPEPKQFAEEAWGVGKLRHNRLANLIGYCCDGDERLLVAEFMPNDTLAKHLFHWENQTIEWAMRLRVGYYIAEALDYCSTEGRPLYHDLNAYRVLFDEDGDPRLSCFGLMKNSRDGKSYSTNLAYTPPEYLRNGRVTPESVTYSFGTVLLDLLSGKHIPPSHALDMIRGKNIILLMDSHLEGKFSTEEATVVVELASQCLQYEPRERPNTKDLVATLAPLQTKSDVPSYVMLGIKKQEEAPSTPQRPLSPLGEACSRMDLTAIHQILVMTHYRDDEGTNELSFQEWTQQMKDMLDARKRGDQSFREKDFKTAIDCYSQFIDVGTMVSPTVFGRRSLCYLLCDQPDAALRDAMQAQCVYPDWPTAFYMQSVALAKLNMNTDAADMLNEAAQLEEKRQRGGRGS

BSK3-His = biological target: T2, BSK3-His (UniProt Q8W4L3 1-489); experiment: as above; conditions: both partners purified
T2 construct: BSK3, receptor-like cytoplasmic kinase of subfamily RLCK-XII, full-length cDNA in pET-28a; The species is most likely Arabidopsis thaliana, the plant of the whole study; source: E. coli BL21 (DE3), purified (Ni-NTA Agarose)
T2 sequence (Q8W4L3 whole entry): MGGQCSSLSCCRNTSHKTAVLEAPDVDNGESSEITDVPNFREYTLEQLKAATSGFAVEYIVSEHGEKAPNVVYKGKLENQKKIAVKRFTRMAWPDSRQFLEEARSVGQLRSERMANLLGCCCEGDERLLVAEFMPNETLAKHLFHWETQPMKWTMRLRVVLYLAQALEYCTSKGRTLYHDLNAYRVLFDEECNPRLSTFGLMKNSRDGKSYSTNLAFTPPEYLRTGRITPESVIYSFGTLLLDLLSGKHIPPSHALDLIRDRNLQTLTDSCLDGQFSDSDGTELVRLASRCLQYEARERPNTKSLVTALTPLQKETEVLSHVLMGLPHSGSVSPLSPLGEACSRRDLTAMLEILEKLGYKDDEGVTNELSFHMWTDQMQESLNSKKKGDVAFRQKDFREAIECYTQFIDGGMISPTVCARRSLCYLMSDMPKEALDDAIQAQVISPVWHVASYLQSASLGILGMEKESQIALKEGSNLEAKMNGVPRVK

binding result (BSK1-His) | binding result (BSK3-His) | Binder
binds | binds | GST-BRI1-CD (domain or fragment, Arabidopsis thaliana, UniProt O22476 814-1196, looked up, BRASSINOSTEROID … 1 (BRI1) LRR receptor-like kinase, Arabidopsis thaliana, cytoplasmic domain, residues 814-1196, cloned into pGEX-4T-3; also called cytoplasmic domain of BRI1; source: E. coli BL21 (DE3), purified (Glutathione Sepharose 4B)) GREMRKRRRKKEAELEMYAEGHGNSGDRTANNTNWKLTGVKEALSINLAAFEKPLRKLTFADLLQATNGFHNDSLIGSGGFGDVYKAILKDGSAVAIKKLIHVSGQGDREFMAEMETIGKIKHRNLVPLLGYCKVGDERLLVYEFMKYGSLEDVLHDPKKAGVKLNWSTRRKIAIGSARGLAFLHHNCSPHIIHRDMKSSNVLLDENLEARVSDFGMARLMSAMDTHLSVSTLAGTPGYVPPEYYQSFRCSTKGDVYSYGVVLLELLTGKRPTDSPDFGDNNLVGWVKQHAKLRISDVFDPELMKEDPALEIELLQHLKVAVACLDDRAWRRPTMVQVMAMFKEIQAGSGIDSQSTIRSIEDGGFSTIEMVDMSIKEVPEGKL
binds | binds | GST-EMS1-CD (domain or fragment, Arabidopsis thaliana, UniProt Q9LYN8 849-1192, looked up, EXCESS MICROSPOROCYTES1 (EMS1) LRR receptor-like kinase, Arabidopsis thaliana, cytoplasmic domain, residues 849-1192, cloned into pGEX-4T-3; also called cytoplasmic domain of EMS1; EMS1 kinase domain; source: E. coli BL21 (DE3), purified (Glutathione Sepharose 4B)) RRWAMTKRVKQRDDPERMEESRLKGFVDQNLYFLSGSRSREPLSINIAMFEQPLLKVRLGDIVEATDHFSKKNIIGDGGFGTVYKACLPGEKTVAVKKLSEAKTQGNREFMAEMETLGKVKHPNLVSLLGYCSFSEEKLLVYEYMVNGSLDHWLRNQTGMLEVLDWSKRLKIAVGAARGLAFLHHGFIPHIIHRDIKASNILLDGDFEPKVADFGLARLISACESHVSTVIAGTFGYIPPEYGQSARATTKGDVYSFGVILLELVTGKEPTGPDFKESEGGNLVGWAIQKINQGKAVDVIDPLLVSVALKNSQLRLLQIAMLCLAETPAKRPNMLDVLKALKEI
